Here are results for five molecules from patent publication US20250346885A1, “SYSTEMS AND METHODS FOR TARGETED CONTINUOUS GENOME MUTAGENESIS” (The Broad Institute, Inc., priority 2023, published 2025).

Test [1] has as its system double-stranded DNA. The conditions noted are these: average base pairs unwound in a single binding event; cited from earlier work.
Test [2] concerns HEK3 locus. The test can be described thus: HACE editing assay at the HEK3 locus, amplicon sequencing. It counts as cell-based, human. The conditions noted are these: HEK293FT cells, HEs with and without UGI fusion. The source says: An example HACE Editor (HE) protein was constructed by fusing a hyperactive mutant of activation-induced cytidine deaminase (AID*Δ) with a Geobacillus stearothermophilus PcrA helicase that was previously optimized for processivity (PcrA M6). […] After the nCas9 creates a nick, the HE may load at the nick, start unwinding the DNA, and generate random mutations in the process.
Separate plasmids expressing HE, nCas9, and a sgRNA targeting the HEK3 locus were transfected into HEK293FT cells. Cells were collected 72 hours after transfection, and editing rates were evaluated by amplicon sequencing. […] A strand bias with G>A substitutions occurring at a higher rate than C>T substitutions was detected, which likely reflects preferential repair of mismatches on the nicked strand. […]
For short amplicon (˜300 bp) sequencing for HEK293T and A375 cells, the target region was amplified from genomic DNA samples using Phusion U Hot Start PCR master mix (ThermoFisher Scientific, F562) in a 20 μL reaction. […] Amplicons were pooled and prepared for sequencing on a NextSeq (Illumina) with paired-end reads (read1, 160 bp; index1, 8 bp; index2, 8 bp; read2, 160 bp). Reads were demultiplexed and analyzed with appropriate pipelines. […]
Raw fastq reads obtained from sequencing were quality trimmed using BBduk(1) (BBMap v38.93) with the options “qtrim=r1 trimq=28 maq=25”. […]

B1: Rep: helicase with short-range processivity (protein, UniProt P09980 1-673, looked up)
ATP-dependent DNA helicase Rep: MRLNPGQQQAVEFVTGPCLVLAGAGSGKTRVITNKIAHLIRGCGYQARHIAAVTFTNKAAREMKERVGQTLGRKEARGLMISTFHTLGLDIIKREYAALGMKANFSLFDDTDQLALLKELTEGLIEDDKVLLQQLISTISNWKNDLKTPSQAAASAIGERDRIFAHCYGLYDAHLKACNVLDFDDLILLPTLLLQRNEEVRKRWQNKIRYLLVDEYQDTNTSQYELVKLLVGSRARFTVVGDDDQSIYSWRGARPQNLVLLSQDFPALKVIKLEQNYRSSGRILKAANILIANNPHVFEKRLFSELGYGAELKVLSANNEEHEAERVTGELIAHHFVNKTQYKDYAILYRGNHQSRVFEKFLMQNRIPYKISGGTSFFSRPEIKDLLAYLRVLTNPDDDSAFLRIVNTPKREIGPATLKKLGEWAMTRNKSMFTASFDMGLSQTLSGRGYEALTRFTHWLAEIQRLAEREPIAAVRDLIHGMDYESWLYETSPSPKAAEMRMKNVNQLFSWMTEMLEGSELDEPMTLTQVVTRFTLRDMMERGESEEELDQVQLMTLHASKGLEFPYVYMVGMEEGFLPHQSSIDEDNIDEERRLAYVGITRAQKELTFTLCKERRQYGELVRPEPSRFLLELPQDDLIWEQERKVVSAEERMQKGQSHLANLKAMMAAKRGK
Turning to B1, the processivity range in test [1] was 30-50 base pairs.

B2: UGI: uracil DNA glycosylase inhibitor fused to the HACE editor (protein, UniProt P14739 1-84, looked up)
Uracil-DNA glycosylase …: MTNLSDIIEKETGKQLVIQESILMLPEEVEEVIGNKPESDILVHTAYDESTDENVMLLTSDAPEYKPWALVIQDSNGENKIKML
modifications: fused to HACE editor
As to B2, in test [2], the “effect of UGI fusion on editing levels for AID” value is “significantly elevated the editing levels”.

B3: Sgs1: helicase with short-range processivity (protein, UniProt P35187 1-1447, looked up)
ATP-dependent helicase SGS1: MVTKPSHNLRREHKWLKETATLQEDKDFVFQAIQKHIANKRPKTNSPPTTPSKDECGPGTTNFITSIPASGPTNTATKQHEVMQTLSNDTEWLSYTATSNQYADVPMVDIPASTSVVSNPRTPNGSKTHNFNTFRPHMASSLVENDSSRNLGSRNNNKSVIDNSSIGKQLENDIKLEVIRLQGSLIMALKEQSKLLLQKCSIIESTSLSEDAKRLQLSRDIRPQLSNMSIRIDSLEKEIIKAKKDGMSKDQSKGRSQVSSQDDNIISSILPSPLEYNTSSRNSNLTSTTATTVTKALAITGAKQNITNNTGKNSNNDSNNDDLIQVLDDEDDIDCDPPVILKEGAPHSPAFPHLHMTSEEQDELTRRRNMRSREPVNYRIPDRDDPFDYVMGKSLRDDYPDVEREEDELTMEAEDDAHSSYMTTRDEEKEENELLNQSDFDFVVNDDLDPTQDTDYHDNMDVSANIQESSQEGDTRSTITLSQNKNVQVILSSPTAQSVPSNGQNQIGVEHIDLLEDDLEKDAILDDSMSFSFGRQHMPMSHSDLELIDSEKENEDFEEDNNNNGIEYLSDSDLERFDEERENRTQVADIQELDNDLKIITERKLTGDNEHPPPSWSPKIKREKSSVSQKDEEDDFDDDFSLSDIVSKSNLSSKTNGPTYPWSDEVLYRLHEVFKLPGFRPNQLEAVNATLQGKDVFVLMPTGGGKSLCYQLPAVVKSGKTHGTTIVISPLISLMQDQVEHLLNKNIKASMFSSRGTAEQRRQTFNLFINGLLDLVYISPEMISASEQCKRAISRLYADGKLARIVVDEAHCVSNWGHDFRPDYKELKFFKREYPDIPMIALTATASEQVRMDIIHNLELKEPVFLKQSFNRTNLYYEVNKKTKNTIFEICDAVKSRFKNQTGIIYCHSKKSCEQTSAQMQRNGIKCAYYHAGMEPDERLSVQKAWQADEIQVICATVAFGMGIDKPDVRFVYHFTVPRTLEGYYQETGRAGRDGNYSYCITYFSFRDIRTMQTMIQKDKNLDRENKEKHLNKLQQVMAYCDNVTDCRRKLVLSYFNEDFDSKLCHKNCDNCRNSANVINEERDVTEPAKKIVKLVESIQNERVTIIYCQDVFKGSRSSKIVQANHDTLEEHGIGKSMQKSEIERIFFHLITIRVLQEYSIMNNSGFASSYVKVGPNAKKLLTGKMEIKMQFTISAPNSRPSTSSSFQANEDNIPVIAQKSTTIGGNVAANPPRFISAKEHLRSYTYGGSTMGSSHPITLKNTSDLRSTQELNNLRMTYERLRELSLNLGNRMVPPVGNFMPDSILKKMAAILPMNDSAFATLGTVEDKYRRRFKYFKATIADLSKKRSSEDHEKYDTILNDEFVNRAAASSNGIAQSTGTKSKFFGANLNEAKENEQIINQIRQSQLPKNTTSSKSGTRSISKSSKKSANGRRGFRNYRGHYRGRK
As to B3, in test [1], the processivity range result is on record as “about 100 base pairs”.

B4: UvrD: E. coli helicase (protein, UniProt P03018 1-720, looked up)
DNA helicase II: MDVSYLLDSLNDKQREAVAAPRSNLLVLAGAGSGKTRVLVHRIAWLMSVENCSPYSIMAVTFTNKAAAEMRHRIGQLMGTSQGGMWVGTFHGLAHRLLRAHHMDANLPQDFQILDSEDQLRLLKRLIKAMNLDEKQWPPRQAMWYINSQKDEGLRPHHIQSYGNPVEQTWQKVYQAYQEACDRAGLVDFAELLLRAHELWLNKPHILQHYRERFTNILVDEFQDTNNIQYAWIRLLAGDTGKVMIVGDDDQSIYGWRGAQVENIQRFLNDFPGAETIRLEQNYRSTSNILSAANALIENNNGRLGKKLWTDGADGEPISLYCAFNELDEARFVVNRIKTWQDNGGALAECAILYRSNAQSRVLEEALLQASMPYRIYGGMRFFERQEIKDALSYLRLIANRNDDAAFERVVNTPTRGIGDRTLDVVRQTSRDRQLTLWQACRELLQEKALAGRAASALQRFMELIDALAQETADMPLHVQTDRVIKDSGLRTMYEQEKGEKGQTRIENLEELVTATRQFSYNEEDEDLMPLQAFLSHAALEAGEGQADTWQDAVQLMTLHSAKGLEFPQVFIVGMEEGMFPSQMSLDEGGRLEEERRLAYVGVTRAMQKLTLTYAETRRLYGKEVYHRPSRFIGELPEECVEEVRLRATVSRPVSHQRMGTPMVENDSGYKLGQRVRHAKFGEGTIVNMEGSGEHSRLQVAFQGQGIKWLVAAYARLESV
Turning to B4, the processivity range in test [1] is reported as 30-40 base pairs.

B5: TraI: E. coli helicase (protein)
chain: MAKIHMVLQGKGGVGKSAIAAIIAQYKMDKGQTPLCIDTDPVNATFEGYKALNVRRLNIMAGDEINSRNFDTLVELIAPTKDDVVIDNGASSFVPLSHYLISNQVPALLQEMGHELVIHTVVTGGQALLDTVSGFAQLASQFPAEALFVVWLNPYWGPIEHEGKSFEQMKAYTANKARVSSIIQIPALKEETYGRDFSDMLQERLTFDQALADESLTIMTRQRLKIVRRGLFEQLDAAAVL
For the molecule B5, the processivity range result in test [1] is on record as “at least 850 base pairs”.
